As usually defined, the Kd is a measure of binding affinity in units of concentration. Read a low Kd as tighter binding.

For five substances, Kd, fold tighter binding than AP2 core and fold reduction of binding against N1+N2 results are on record in publication PMC9054013, “FCHO controls AP2’s initiating role in endocytosis through a PtdIns(4,5)P2-dependent switch” (Science Advances, 2022).

For assay [1], the target named is GST-FCHO1 linker wt (N123C) (residues 316 to 444) (human) (UniProt O14526). The experiment in a line: BLI; GST-FCHO1 or GST-FCHO2 linker loaded on anti-GST biosensors, blocked with GST-ARRS control; AP2 core in solution (twofold dilutions, 13.5 to 0.8 and 10.0 to 0.2 μM); 25°C; 0.1% NP-40, BSA 1 mg/ml; equilibrium analysis; near-physiological conditions. In general terms: In BLI a coated tip is dipped into the sample, and binding shifts an interference pattern.
Sequence of GST-FCHO1 linker wt (N123C) (residues 316 to 444) (human) (O14526 316-444, stated change not applied): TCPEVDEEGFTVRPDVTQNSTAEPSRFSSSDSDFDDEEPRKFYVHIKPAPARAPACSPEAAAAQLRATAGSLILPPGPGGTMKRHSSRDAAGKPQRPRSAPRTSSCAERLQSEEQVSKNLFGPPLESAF

Assay [2] has as its target GST-FCHO2 linker wt (residues 314 to 444) (human) (UniProt Q0JRZ9). Described as above.
Assay [3] deals with GST-TGN38 (pGEX4T2 linker TGN38). Nature of the assay: BLI; GST-TGN38 loaded on anti-GST biosensors; AP2 core (3.3 to 0.1 μM) or AP2 FCHO2 chimera (2.6 to 0.9 μM) in solution; physiological buffer; association 20 min, dissociation 25 min.
Sequence of GST-TGN38 (pGEX4T2 linker TGN38) (Q9UJY5 other isoform, or with tags, fused parts or gaps): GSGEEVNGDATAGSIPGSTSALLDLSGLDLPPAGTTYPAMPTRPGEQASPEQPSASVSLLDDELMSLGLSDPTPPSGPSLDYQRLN
The target of assay [4] is AP2 α-appendage (residues 695 to 938) (UniProt P17427). The experiment in a line: ITC; α-appendage or β2-appendage with C block peptides; 100 mM tris pH 7.4, 150 mM NaCl, 0.25 mM TCEP; 12°C; peptides 1 to 5 mM titrated. On the technique in general: In ITC the heat of successive injections is recorded.
Sequence of AP2 α-appendage (residues 695 to 938) (P17427 695-938): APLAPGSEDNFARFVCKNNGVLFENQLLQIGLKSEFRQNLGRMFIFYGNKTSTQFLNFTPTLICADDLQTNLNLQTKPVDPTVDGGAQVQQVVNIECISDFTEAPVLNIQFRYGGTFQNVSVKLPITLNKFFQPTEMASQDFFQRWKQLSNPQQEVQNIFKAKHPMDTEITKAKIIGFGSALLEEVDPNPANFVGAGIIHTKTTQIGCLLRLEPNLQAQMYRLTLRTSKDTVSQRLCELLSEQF
Assay [5] addresses Cμ2 (μ2 residues 160 to 435) (UniProt P84092). The experiment in a line: ITC; Cμ2 with FCHO2 constructs or peptides; 100 mM tris pH 7.4, 150 mM NaCl, 0.25 mM TCEP; 12°C; Nano ITC.

Sequence of Cμ2 (μ2 residues 160 to 435) (P84092 160-435): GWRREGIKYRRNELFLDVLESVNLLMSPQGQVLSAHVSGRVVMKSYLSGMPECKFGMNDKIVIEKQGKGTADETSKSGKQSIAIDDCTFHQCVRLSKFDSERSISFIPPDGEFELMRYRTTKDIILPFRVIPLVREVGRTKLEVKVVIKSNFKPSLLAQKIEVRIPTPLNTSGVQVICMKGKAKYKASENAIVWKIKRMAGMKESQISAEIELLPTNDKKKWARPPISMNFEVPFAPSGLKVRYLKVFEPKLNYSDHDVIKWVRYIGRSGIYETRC
Sequence of GST-FCHO2 linker wt (residues 314 to 444) (human) (Q0JRZ9 314-444): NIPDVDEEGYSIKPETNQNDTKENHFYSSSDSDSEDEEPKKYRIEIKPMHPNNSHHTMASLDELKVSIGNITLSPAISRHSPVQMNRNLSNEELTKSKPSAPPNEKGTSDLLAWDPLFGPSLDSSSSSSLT

In the case of “AP2 core (recombinant) (from UniProt P63010 1-591; P84092 1-435; P62743 1-142) (complex)”, the Kd in assay [1] came to 8.5 µM; in assay [2], 9.8 µM. Turning to “AP2:μ2FCHO2-N1+N2+N3 chimeric AP2 core (from UniProt P62743 1-142; P63010 1-591; Q0JRZ9-1 314-444) (complex)”, the fold tighter binding than AP2 core in assay [3] was found to be 3 fold. In assay [4], FCHO1 C peptide (residues 426 to 448) returned a Kd of 50 µM. As for “FCHO2 N1 alone (ITC) (from UniProt Q0JRZ9-1 314-340) (domain or fragment)”, in assay [5], the fold reduction of binding against N1+N2 worked out at 5 fold. In turn, “FCHO2-N1+N2 (ITC) (from UniProt Q0JRZ9-1 314-356) (domain or fragment)” displayed a Kd in assay [5] of 25 µM.
